In the experiment the target is T1, GFP-HO-1 (heme oxygenase 1 with an N-terminal GFP2 tag) (human, UniProt P09601 1-288).
T1 sequence (looked up): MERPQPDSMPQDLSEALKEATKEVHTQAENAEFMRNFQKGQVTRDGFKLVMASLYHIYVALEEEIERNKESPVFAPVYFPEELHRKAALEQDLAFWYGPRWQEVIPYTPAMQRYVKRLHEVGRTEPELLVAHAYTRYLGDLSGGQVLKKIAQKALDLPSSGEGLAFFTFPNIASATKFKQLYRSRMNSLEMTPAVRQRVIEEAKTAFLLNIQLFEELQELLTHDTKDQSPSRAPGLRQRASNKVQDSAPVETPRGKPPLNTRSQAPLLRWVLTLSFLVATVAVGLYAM
Briefly: cell-based or functional assay.

B1: POR-Rluc (NADPH-cytochrome P450 reductase with a C-terminal Rluc tag) (enzyme, human, UniProt P16435 1-677, looked up)
chain: MGDSHVDTSSTVSEAVAEEVSLFSMTDMILFSLIVGLLTYWFLFRKKKEEVPEFTKIQTLTSSVRESSFVEKMKKTGRNIIVFYGSQTGTAEEFANRLSKDAHRYGMRGMSADPEEYDLADLSSLPEIDNALVVFCMATYGEGDPTDNAQDFYDWLQETDVDLSGVKFAVFGLGNKTYEHFNAMGKYVDKRLEQLGAQRIFELGLGDDDGNLEEDFITWREQFWPAVCEHFGVEATGEESSIRQYELVVHTDIDAAKVYMGEMGRLKSYENQKPPFDAKNPFLAAVTTNRKLNQGTERHLMHLELDISDSKIRYESGDHVAVYPANDSALVNQLGKILGADLDVVMSLNNLDEESNKKHPFPCPTSYRTALTYYLDITNPPRTNVLYELAQYASEPSEQELLRKMASSSGEGKELYLSWVVEARRHILAILQDCPSLRPPIDHLCELLPRLQARYYSIASSSKVHPNSVHICAVVVEYETKAGRINKGVATNWLRAKEPAGENGGRALVPMFVRKSQFRLPFKATTPVIMVGPGTGVAPFIGFIQERAWLRQQGKEVGETLLYYGCRRSDEDYLYREELAQFHRDGALTQLNVAFSREQSHKVYVQHLLKQDREHLWKLIEGGAHIYVCGDARNMARDVQNTFYDIVAELGAMEHAQAVDYIKKLMTKGRYSLDVWS
Turning to B1, the “apparent Km^POR•HO-1 from HO-1-mediated heme degradation against POR concentration 0.025-0.5 μM; purified recombinant HO-1 (0.1 μM) and POR in DLPC, in the presence of 0.1 μM CYP1A2” value amounted to 0.024 µM.

Values taken from publication PMC7948974, “Heme oxygenase-1 affects cytochrome P450 function through the formation of heteromeric complexes: Interactions between CYP1A2 and heme oxygenase-1” (The Journal of Biological Chemistry, 2020).
